Here are results for three substances from paper PMC2646144.

In experiment [1] the target is M3-protein heterologously expressed on the surface of S. gordonii GP1221 (SGO M3) (S. pyogenes | not stated). As to the kind of experiment: radioligand binding; about 14 ng 125I-CIV or 125I-CB3 added to 250 µl bacterial suspension (S. gordonii expressing M3), room temperature 45 min, pellet-associated radioactivity as percentage of input.
In experiment [2] the target is Collagen type IV from human placenta, full length (human) (UniProt P02462). As to the kind of experiment: SPR; BIAcore 2000, CIV or CB3 immobilised on CM5 chip by amine coupling, M3-protein injected at 6.25-50 µg/ml, 10 mM HEPES, 100 mM NaCl, pH 7.4; apparent dissociation constants. (Surface plasmon resonance follows binding to a sensor surface in real time, without labels.)

For the substance “Cyanogen bromide fragment 3 (CB3) of collagen type IV (domain or fragment)”, the percent of the 125I-labeled ligand bound in experiment [1] is greater than 80%.

“GST-M3-protein (recombinant streptococcal M-protein type 3) (natural protein)”: the Kd in experiment [2] amounted to 5 nM.

Consider “Collagen type IV from human placenta, full length (from UniProt P02462 28-1669; P08572 26-1712) (complex)”, for which, in experiment [1], the percent of the 125I-labeled ligand bound was greater than 80%.
